Measured values reported in US20140341931A1.

Experiments:
[1] = biological target: recombinant sCD27 containing 6x his-Tag at the carboxyl terminus (human) (UniProt P26842); assay: mock depletion on plate coated with control IgG, sCD27 ELISA of the supernatant
[2] = biological target: High mobility group protein B1 (human) (UniProt P09429); assay: control (background) lane of the PolyHis pull-down, no bait peptides detected, mass spectrometry
Myosin IIA (human) [3] = biological target: Myosin IIA (human) (UniProt P35579); assay: as above
Myosin IIA (human), sequence (P35579 2-1960 limits assumed): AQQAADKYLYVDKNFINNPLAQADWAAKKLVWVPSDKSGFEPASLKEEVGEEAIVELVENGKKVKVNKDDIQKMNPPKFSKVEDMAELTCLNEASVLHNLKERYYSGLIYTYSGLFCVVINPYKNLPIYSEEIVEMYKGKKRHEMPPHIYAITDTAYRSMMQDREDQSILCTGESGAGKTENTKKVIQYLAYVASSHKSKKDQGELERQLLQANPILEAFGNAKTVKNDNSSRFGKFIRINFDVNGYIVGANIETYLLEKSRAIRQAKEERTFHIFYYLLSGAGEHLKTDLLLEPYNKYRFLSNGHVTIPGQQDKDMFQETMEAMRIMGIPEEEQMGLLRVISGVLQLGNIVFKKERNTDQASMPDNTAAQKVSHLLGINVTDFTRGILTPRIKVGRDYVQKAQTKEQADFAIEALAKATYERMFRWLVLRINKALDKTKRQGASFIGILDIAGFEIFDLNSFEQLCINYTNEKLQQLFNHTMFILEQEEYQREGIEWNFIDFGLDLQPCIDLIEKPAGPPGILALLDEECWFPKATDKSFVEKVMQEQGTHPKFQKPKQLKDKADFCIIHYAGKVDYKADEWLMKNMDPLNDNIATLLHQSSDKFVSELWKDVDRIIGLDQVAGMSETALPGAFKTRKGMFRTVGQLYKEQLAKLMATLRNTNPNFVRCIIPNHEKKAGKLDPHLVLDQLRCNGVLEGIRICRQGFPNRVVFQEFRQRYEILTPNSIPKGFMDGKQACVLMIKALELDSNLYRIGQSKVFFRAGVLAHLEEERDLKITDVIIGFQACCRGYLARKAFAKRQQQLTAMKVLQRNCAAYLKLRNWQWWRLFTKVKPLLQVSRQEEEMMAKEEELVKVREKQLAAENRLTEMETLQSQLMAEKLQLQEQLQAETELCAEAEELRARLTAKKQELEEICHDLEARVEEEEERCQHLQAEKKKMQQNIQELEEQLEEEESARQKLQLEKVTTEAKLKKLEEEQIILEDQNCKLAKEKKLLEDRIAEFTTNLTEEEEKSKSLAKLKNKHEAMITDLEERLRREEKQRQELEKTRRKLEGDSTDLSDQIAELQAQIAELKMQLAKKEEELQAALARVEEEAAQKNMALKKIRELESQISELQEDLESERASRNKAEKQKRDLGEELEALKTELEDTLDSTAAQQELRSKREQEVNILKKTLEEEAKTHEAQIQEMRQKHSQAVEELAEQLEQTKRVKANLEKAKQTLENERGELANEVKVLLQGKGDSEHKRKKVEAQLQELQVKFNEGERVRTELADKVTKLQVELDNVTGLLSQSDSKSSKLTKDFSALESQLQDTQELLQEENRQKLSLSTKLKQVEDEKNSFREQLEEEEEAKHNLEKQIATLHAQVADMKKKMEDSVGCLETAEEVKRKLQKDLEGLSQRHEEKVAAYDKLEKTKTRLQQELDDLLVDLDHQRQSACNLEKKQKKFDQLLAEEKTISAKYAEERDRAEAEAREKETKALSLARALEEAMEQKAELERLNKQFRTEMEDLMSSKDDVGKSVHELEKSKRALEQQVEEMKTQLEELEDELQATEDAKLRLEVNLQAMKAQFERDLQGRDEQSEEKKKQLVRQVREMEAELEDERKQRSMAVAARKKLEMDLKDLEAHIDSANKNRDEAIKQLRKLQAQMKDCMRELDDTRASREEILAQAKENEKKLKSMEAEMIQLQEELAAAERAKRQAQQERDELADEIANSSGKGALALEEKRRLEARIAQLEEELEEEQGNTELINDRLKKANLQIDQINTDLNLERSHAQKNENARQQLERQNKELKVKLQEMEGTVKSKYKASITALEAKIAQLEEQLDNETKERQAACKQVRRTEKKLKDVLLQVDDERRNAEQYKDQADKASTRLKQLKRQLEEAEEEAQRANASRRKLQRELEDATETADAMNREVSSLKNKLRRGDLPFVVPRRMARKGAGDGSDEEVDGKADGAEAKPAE

[4] = biological target: High mobility group protein B1 (human) (UniProt P09429); assay: PolyHis pull-down with sCD27-his as bait from lysate of stimulated PBMCs, SDS-PAGE, mass spectrometry
Myosin IIA (human) [5] = biological target: Myosin IIA (human) (UniProt P35579); assay: as above

High mobility group protein B1 (human), sequence (P09429 whole entry): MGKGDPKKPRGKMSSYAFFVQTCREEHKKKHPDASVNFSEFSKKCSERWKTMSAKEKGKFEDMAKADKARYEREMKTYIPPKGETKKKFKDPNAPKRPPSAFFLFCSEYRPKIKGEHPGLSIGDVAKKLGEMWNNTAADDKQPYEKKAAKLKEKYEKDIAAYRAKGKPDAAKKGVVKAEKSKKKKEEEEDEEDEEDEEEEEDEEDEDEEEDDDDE

Substance | sCD27 value left after depletion [1] [ng/mL] | TPC (total peptide count) in Lane 4 (background) [2] [peptides] | TPC (total peptide count) in Lane 4 (background) (Myosin IIA (human) [3]) [peptides] | TPC (total peptide count) in Lane 2 (positive) [4] [peptides] | TPC (total peptide count) in Lane 2 (positive) (Myosin IIA (human) [5]) [peptides]
IgG control (R&D Systems Inc.) (antibody) | 1.4 | – | – | – | –
recombinant sCD27 containing 6x his-Tag at the carboxyl terminus (from UniProt P26842 20-189) (receptor) | – | 5 | 14 | 44 | 79
